Reference: the supplement of paper PMC6757056
± gives the standard deviation of the averaged measurements.

B1: library; a variant is named by its letters at N, in order (parent)
chain: GCUGUCACCGGUGCUUGGUACGUUAUAUUCAGCCGGUCUGAUGAGUCUNNNNNNAGACGAAACAGC

What was measured:
[1] = variants of: B1; experiment: normalized RNA/DNA level without ligand (relative to sTRSVctl = 100) (log10 (% of sTRSVctl)); HEK293T overexpressing SLC46A1; higher = less ribozyme self-cleavage, higher mRNA level; conditions: without (6R,S)-folinic acid; ligand present: no
Procedure, shortened: (§1)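 Library plasmids carrying ribozyme switches linked to mCherry, or to eGFP in some ligand experiments, were transfected into HEK293T at 4 µg per 6-well well, with any ligand added 1 h earlier. Seventy-two hours on, total RNA was extracted with EDTA and reverse-transcribed, amplified, barcoded and sequenced. RNA level was RNA over DNA reads normalized to a spiked-in non-cleaving sequence or to the top sequences, then scaled and log-transformed. The top set was 25 sequences, the transform was ×100 and log10, and sequences needed ≥100 DNA reads.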

[2] = variants of: B1; experiment: normalized RNA/DNA level with ligand (relative to sTRSVctl = 100) (log10 (% of sTRSVctl)); HEK293T overexpressing SLC46A1; ligand concentration (+) RNA-Seq: 6 mM; higher = less ribozyme self-cleavage, higher mRNA level; conditions: with (6R,S)-folinic acid; ligand present: yes
Procedure, shortened: as §1

Variant	normalized RNA/DNA level without ligand (log10) [1]	normalized RNA/DNA level with ligand (log10) [2]
GCCGUA	2.002 ± 0.0022	2.02 ± 0.05
CGUCAA	1.98 ± 0.022	1.974 ± 0.018
CUUUCA	1.992 ± 0.013	2.01 ± 0.077
UAGUGA	1.8778 ± 0.0018	2 ± 0.025
CCGAUU	2.06 ± 0.051	2.053 ± 0.018
GGCGCG	2.085 ± 0.011	2.06 ± 0.05
GCGGGC	1.95 ± 0.045	1.959 ± 0.017
GCGGGU	2.05 ± 0.045	2.017 ± 0.012
UAAAUC	2.06 ± 0.0029	2.06 ± 0.045
GAGCGU	1.982 ± 0.0095	2 ± 0.048
GAGCGG	1.982 ± 0.011	2.06 ± 0.031
CAACGG	1.9202 ± 0.00028	1.976 ± 0.0039
CAUUAA	1.953 ± 0.0081	1.976 ± 0.014
GGUGGU	2.053 ± 0.016	2.03 ± 0.031
UUGAAU	1.955 ± 0.0032	2.01 ± 0.025
GCUCCG	2.027 ± 0.0072	2.05 ± 0.055
CCUAUU	2.038 ± 0.0071	2.04 ± 0.022
CGUCGU	2.04 ± 0.032	2 ± 0.03
ACUUGU	2.062 ± 0.011	2.064 ± 0.013
GGGCCC	2.102 ± 0.0043	2.08 ± 0.039

Variant	normalized RNA/DNA level without ligand (log10) [1]	normalized RNA/DNA level with ligand (log10) [2]
GCCCGG	2.089 ± 0.005	2.02 ± 0.035
GAUCAA	2.001 ± 0.0021	2 ± 0.027
GUGUUA	1.988 ± 0.015	2.01 ± 0.025
UACGCU	2.0313 ± 0.00036	2.043 ± 0.0085
GCUGAG	1.974 ± 0.013	2.04 ± 0.039
UGACUU	2.006 ± 0.014	2.017 ± 0.015
CCCUGA	2.088 ± 0.014	2.1 ± 0.051
ACGUGC	2.026 ± 0.0053	2.02 ± 0.055
GAACAU	1.9736 ± 0.0012	2.01 ± 0.035
UUAACG	1.934 ± 0.018	1.984 ± 0.019
UUAACU	2.041 ± 0.0026	2.018 ± 0.0049
CUGCCG	2.038 ± 0.012	2.075 ± 0.0058
UCGCAG	1.921 ± 0.0076	2.01 ± 0.024
GCCUCU	2.0468 ± 0.0011	2.07 ± 0.027
UGAUAU	1.92 ± 0.034	1.984 ± 0.014
AUUGGU	1.884 ± 0.011	1.99 ± 0.056
UAGUUC	2.0145 ± 0.00068	2.03 ± 0.027
AGCGGC	2.104 ± 0.0038	2.05 ± 0.039
GCACCU	2.028 ± 0.015	2.01 ± 0.035
GCACCA	2.04 ± 0.022	2 ± 0.039

Variant	normalized RNA/DNA level without ligand (log10) [1]	normalized RNA/DNA level with ligand (log10) [2]
AGCCAA	1.9858 ± 0.00027	1.99 ± 0.037
AGCCAG	1.985 ± 0.0073	2.04 ± 0.035
CAGAGA	1.999 ± 0.019	2.01 ± 0.045
CUGGCG	1.99 ± 0.026	2.03 ± 0.037
UCCUCG	1.9194 ± 0.00071	2 ± 0.029
AACCGU	1.9935 ± 0.00042	2 ± 0.032
GAAUAU	2.038 ± 0.015	2.02 ± 0.051
CUGUAA	1.958 ± 0.018	2.02 ± 0.037
UAAGUA	1.896 ± 0.0077	1.98 ± 0.034
CAUCUU	2.034 ± 0.0024	2 ± 0.038
GUACCU	2.086 ± 0.0075	2.06 ± 0.051
CGUAUG	2.016 ± 0.012	2.01 ± 0.016
CGUAUC	2.09 ± 0.0065	2.07 ± 0.023
AGUGAC	2.006 ± 0.0076	1.99 ± 0.04
GGAUCC	2.0688 ± 0.00086	2.06 ± 0.037
CGGGUU	2 ± 0.024	2 ± 0.051
CGGGUC	2.078 ± 0.0029	2.06 ± 0.038
ACUGGA	1.943 ± 0.0043	2 ± 0.058
